This note sets out measurements from the supplement of paper PMC12042874.

± gives the uncertainty stated by the source.

The series is described as follows: amyloid nucleation score (Sup35N fusion, yeast selection) (log enrichment); library NNK2; higher = more nucleation; inactive = no reads after selection. An outline of the steps:
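Sup35N fusions to peptides of 20 random codons were expressed in psi-negative yeast, induced 24 hours with 100 μM copper sulfate, and grown 7 days at 30°C on medium lacking adenine and uracil. Input and output plasmid inserts were sequenced by Illumina. The nucleation score is the DiMSum log enrichment of output over input reads, centred on the mode score of non-aggregating sequences. Sequences with under 100 input reads were excluded.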

Consider FNLADSTSSVTP, for which the amyloid nucleation score is 0.048 ± 0.65. In the case of NLIKNSAMLSSTRPIYHHSI, the amyloid nucleation score is -1.27 ± 0.3. For VSKNYDHCELRHMECAYWYT the value was 0.211 ± 0.19; for FWRAFMLHWGNFLLMRALHE, “inactive”. For VDSYHGYTDRNALSFLCSLV the value was 0.342 ± 0.23; for LFRYQRPLYGVRRTSTKVMA, 0.226 ± 0.37; for ATHVCVGFTYGFWW, 2.4 ± 0.14.

Regarding HCSQNYMVTRKIFSLWIPYV, the amyloid nucleation score entry was “inactive”.

Take TFINAGFRLHFRFYRFVFSK: the amyloid nucleation score is -0.717 ± 1.

In turn, ANSAYCIGLCLGNCFMSYFC gave an amyloid nucleation score of 7.452 ± 0.043. The substance NVHDEWKGFVSGTCGKVEKA registered an amyloid nucleation score of 0.355 ± 0.29. SMQLDSFCVICGWFALVGLV showed an amyloid nucleation score of 6.67 ± 0.052. For GSSVIFSALRMYVSLFLYLV the value was “inactive”. For AITGGFSAFIRYYGVMYDVG the value was -0.736 ± 0.45; for GKQYPFHFI, -0.583 ± 1.1; for CPRLCLMLLPFKTCMIGTRE, 0.57 ± 0.81.

Regarding SSFFLTQSKSFGYA, the amyloid nucleation score result is “inactive”. For SGRCNSN the value was -0.63 ± 0.79. For GYSLYVYIMDFFTWGNRVII the value was 2.02 ± 0.19; for TSGMYMCFLMLLVFCQLLNG, -1.21 ± 0.44; for WVKENI, -0.234 ± 0.65.

In turn, NGNGCLAFAKTVFCWVDGLP displayed an amyloid nucleation score of 7.215 ± 0.046. For PSGGFTTSMVTDDIDVSARH the value was 0.708 ± 0.53. For FSSIDWLCRRCSQGNRAGID the value was 0.371 ± 0.66; for YLTSINLRVGGSWLCNNGRM, 1.96 ± 0.14.

Turning to EWRKPGFVRGLRLNCVLRYF, the amyloid nucleation score was -1.51 ± 0.78. For FCLFFLASQIIVMGVTTYTG the value was -0.313 ± 0.76; for GSSTSGVCTGVRERAVDCGV, 0.007 ± 0.76; for YNSYVVRMGTI, -0.417 ± 1.1. For TNMIMLFIRMGLRHGDKWAW the value was 2.54 ± 0.19; for SSVVFCSNPGVYGSSRWTSV, 0.492 ± 0.41; for ELFFCFKRLHGLMGYNDLES, 4.13 ± 0.063. For IVCDVLNWPYFVAMAF the value was 0.25 ± 0.8; for LRTIEASLMGVSNLKKWSFI, -0.299 ± 0.48; for SEENYGRYLAMEVYNYSQAL, “inactive”. Consider PPWCLNVCDMLRRSHLAFKR, for which the amyloid nucleation score was -0.213 ± 1.1. The substance TVGVCGTLPGSASRHVYFRE had an amyloid nucleation score of 0.286 ± 0.24. For GSSKFPDFSISLMYELFDI the value was -0.91 ± 1.1; for LSFKRDELVNLNRFSVQFAQ, -0.694 ± 0.38. Substance LSYRTCYRNMP returned an amyloid nucleation score of 0.328 ± 0.46. For TSVLA the value was -1 ± 1.1; for ATRCGDFDQACHSGIT, 0.749 ± 0.28; for NVLGQNAQPPNMDFYVTMIC, 0.508 ± 0.56. In turn, PHPIDNKRMTTPNIADAPPR returned an amyloid nucleation score of 0.56 ± 0.74. For IVCTYFHSTPSCYRLASNWY the value was 0.284 ± 1.1. For RCEAAMWMLASYRVCVTLSC the value was -0.525 ± 1.1; for GFNSNGTFHFSQSVT, -0.001 ± 0.65; for NRKFARWLLLT, -0.492 ± 0.61.

Consider LLFRRMEKSRLSLERV, for which the amyloid nucleation score was -0.257 ± 0.45. For DLDIC the value was -0.2 ± 0.3; for WNLCGCAFDQLYKGVRSVNG, 3.84 ± 0.066; for NIAVPEKAVYTYSPSETQAL, -0.583 ± 0.55. As to EYSYVVGMFREIVDTRTVFV, the amyloid nucleation score came out at 0.107 ± 0.2. In the case of DFTVSHI, the amyloid nucleation score result was “inactive”. As for RLFYYSSFYKDY, the amyloid nucleation score result is “inactive”.

On to GLYANFVPAIRTDGRGWRFW, for which the amyloid nucleation score is -0.352 ± 0.48.
